Laboratory results from US20130231277A1 (NEW YORK UNIVERSITY, published 2013).

Key:
[1] = molecular target: T1, ectodomain of murine βKlotho (F53 to L995 of SEQ ID NO: 218) with a C-terminal FLAG tag (murine, UniProt Q99N32 53-995); experiment: SPR competition; FGF21 immobilized, fixed βKlotho ectodomain mixed with increasing FGF21 (FIG. 7A)
T1 construct: Expressed in HEK293 cells and purified from culture media; also called βKlotho ectodomain; not shown: C-terminal FLAG tag
T1 sequence: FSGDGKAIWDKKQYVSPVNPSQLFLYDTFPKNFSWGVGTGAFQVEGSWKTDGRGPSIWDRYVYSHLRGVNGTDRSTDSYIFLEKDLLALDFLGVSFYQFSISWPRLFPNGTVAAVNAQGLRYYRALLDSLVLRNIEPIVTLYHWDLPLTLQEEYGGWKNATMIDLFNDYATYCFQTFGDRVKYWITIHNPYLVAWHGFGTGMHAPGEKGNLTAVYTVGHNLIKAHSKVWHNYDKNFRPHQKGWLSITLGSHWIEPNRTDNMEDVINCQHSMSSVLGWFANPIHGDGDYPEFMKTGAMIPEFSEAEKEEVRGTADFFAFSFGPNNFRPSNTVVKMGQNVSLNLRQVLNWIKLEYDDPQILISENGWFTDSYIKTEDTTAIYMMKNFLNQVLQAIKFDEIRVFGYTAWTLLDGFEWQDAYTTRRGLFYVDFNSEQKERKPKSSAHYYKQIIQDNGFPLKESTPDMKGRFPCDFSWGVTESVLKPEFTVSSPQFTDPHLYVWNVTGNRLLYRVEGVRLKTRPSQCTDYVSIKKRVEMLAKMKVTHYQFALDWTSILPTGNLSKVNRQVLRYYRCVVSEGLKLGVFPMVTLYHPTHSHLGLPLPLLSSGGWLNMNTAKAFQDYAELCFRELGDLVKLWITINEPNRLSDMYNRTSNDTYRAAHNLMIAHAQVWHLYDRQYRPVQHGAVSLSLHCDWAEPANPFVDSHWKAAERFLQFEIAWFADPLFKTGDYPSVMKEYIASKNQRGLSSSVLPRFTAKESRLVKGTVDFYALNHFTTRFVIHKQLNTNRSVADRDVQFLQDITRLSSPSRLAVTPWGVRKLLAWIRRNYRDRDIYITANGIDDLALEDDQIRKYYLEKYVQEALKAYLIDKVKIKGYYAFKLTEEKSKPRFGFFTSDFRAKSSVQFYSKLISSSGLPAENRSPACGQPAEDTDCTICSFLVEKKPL
Procedure: Increasing concentrations of FGF21 were mixed with a fixed concentration of βKlotho ectodomain, and the mixtures were passed over a FGF21 chip. […] Increasing concentrations of FGF21²⁹⁻¹⁹⁰/FGF19¹⁹⁷⁻²¹⁶ chimera were mixed with a fixed concentration of βKlotho ectodomain, and the mixtures were passed over a FGF21 chip. […] The figure was created from the data shown in FIGS. 7A-B, which are representative of two independent experiments.
SPR experiments were performed on a Biacore 2000 instrument (Biacore AB), and all the protein-protein and protein-peptide interactions were studied at 25° C. in HBS-EP buffer (10 mM HEPES-NaOH, pH 7.4, 150 mM NaCl, 3 mM EDTA, 0.005% (v/v) polysorbate 20). Proteins were immobilized by amine coupling on flow channels of research grade CM5 chips (Biacore AB). Proteins were injected over a CM5 chip at a flow rate of 50 μl min⁻¹, and at the end of each protein injection (180 s), HBS-EP buffer (50 μl min⁻¹) was flowed over the chip to monitor dissociation for 180 s. In experiments where βKlotho binding to FGFR was analyzed, the chip surface was then regenerated by injecting 50 μl of 2.0 M NaCl in 10 mM sodium/potassium phosphate, pH 6.5. In experiments where α/βKlotho binding to FGF19/21/23 or binding of the FGFR1c-βKlotho complex to FGF21 was studied, 2.0 M NaCl in 10 mM sodium acetate, pH 4.5 was used for chip regeneration. […]

[2] = molecular target: T2, 1:1 complex of FGFR1c ligand-binding domain and αKlotho ectodomain (human; murine, UniProt P11362 142-365; O35082 35-982); experiment: SPR; FGF21 immobilized, 1:1 FGFR1c-αKlotho complex passed over the chip (FIG. 1D)
T2 construct: also called FGFR1c-αKlotho complex; binary FGFR1c-αKlotho complex; not shown: C-terminal FLAG tag
T2 sequence 1: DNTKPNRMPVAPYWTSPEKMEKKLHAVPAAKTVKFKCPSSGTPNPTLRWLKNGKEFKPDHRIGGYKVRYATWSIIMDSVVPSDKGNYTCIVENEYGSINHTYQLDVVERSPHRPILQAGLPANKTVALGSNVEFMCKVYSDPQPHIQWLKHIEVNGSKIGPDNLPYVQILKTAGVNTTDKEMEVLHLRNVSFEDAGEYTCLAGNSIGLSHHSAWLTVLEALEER
T2 sequence 2: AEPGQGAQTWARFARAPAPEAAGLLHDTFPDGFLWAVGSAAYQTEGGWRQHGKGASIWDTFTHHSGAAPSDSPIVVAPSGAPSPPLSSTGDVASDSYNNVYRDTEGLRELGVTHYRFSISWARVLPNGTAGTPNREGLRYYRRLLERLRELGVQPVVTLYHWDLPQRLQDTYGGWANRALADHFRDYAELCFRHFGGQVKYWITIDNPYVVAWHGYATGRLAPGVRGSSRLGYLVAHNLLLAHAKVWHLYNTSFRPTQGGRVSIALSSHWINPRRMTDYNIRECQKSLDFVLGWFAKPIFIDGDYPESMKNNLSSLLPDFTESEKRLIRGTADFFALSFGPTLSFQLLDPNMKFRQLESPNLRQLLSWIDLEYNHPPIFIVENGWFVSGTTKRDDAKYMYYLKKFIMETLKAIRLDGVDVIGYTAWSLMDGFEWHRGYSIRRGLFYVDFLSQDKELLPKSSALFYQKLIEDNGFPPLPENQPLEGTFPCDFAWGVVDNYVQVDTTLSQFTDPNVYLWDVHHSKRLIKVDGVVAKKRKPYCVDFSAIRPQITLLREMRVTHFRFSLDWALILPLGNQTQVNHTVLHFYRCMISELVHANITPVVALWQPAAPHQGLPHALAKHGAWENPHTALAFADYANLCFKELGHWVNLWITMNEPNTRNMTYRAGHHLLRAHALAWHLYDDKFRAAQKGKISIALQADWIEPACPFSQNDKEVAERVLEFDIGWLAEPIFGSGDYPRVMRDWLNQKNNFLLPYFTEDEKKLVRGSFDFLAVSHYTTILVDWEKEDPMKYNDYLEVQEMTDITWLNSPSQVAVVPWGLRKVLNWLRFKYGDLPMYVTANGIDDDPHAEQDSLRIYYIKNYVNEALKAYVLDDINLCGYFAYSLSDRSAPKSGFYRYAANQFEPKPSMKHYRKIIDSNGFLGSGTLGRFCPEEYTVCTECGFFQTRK

[3] = molecular target: FGFR1c endogenously expressed by HEK293 cells transiently transfected with murine βKlotho (UniProt P11362 22-822); experiment: cell-based or functional assay
Sequence of FGFR1c endogenously expressed by HEK293 cells transiently transfected with murine βKlotho (P11362 22-822): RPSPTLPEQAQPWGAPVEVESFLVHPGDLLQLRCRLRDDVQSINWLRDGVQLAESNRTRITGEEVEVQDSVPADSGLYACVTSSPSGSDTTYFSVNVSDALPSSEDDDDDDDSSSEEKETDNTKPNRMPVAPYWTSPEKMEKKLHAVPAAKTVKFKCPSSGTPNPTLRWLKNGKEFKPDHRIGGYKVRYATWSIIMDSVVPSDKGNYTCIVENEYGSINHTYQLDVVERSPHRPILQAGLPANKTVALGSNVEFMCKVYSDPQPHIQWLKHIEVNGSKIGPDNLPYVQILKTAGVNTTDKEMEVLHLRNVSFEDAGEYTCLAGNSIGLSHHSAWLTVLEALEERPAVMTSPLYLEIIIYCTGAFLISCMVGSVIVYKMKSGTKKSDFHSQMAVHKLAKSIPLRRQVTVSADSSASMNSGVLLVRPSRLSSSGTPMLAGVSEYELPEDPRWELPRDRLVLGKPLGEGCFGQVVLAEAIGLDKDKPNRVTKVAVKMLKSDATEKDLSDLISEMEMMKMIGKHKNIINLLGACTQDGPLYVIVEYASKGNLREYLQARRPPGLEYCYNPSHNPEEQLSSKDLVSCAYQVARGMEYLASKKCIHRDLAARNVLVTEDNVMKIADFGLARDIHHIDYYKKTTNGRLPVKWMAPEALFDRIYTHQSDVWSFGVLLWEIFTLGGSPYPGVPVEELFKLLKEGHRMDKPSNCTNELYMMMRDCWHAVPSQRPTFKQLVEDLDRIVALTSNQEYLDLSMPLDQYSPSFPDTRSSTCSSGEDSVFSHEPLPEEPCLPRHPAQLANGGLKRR

binding result [1]: binds
binding result [2]: no binding
Induction of Egr1 protein expression (immunoblot, HEK293 cells co-expressing FGFR1c and βKlotho) [3]: > 3 fold greater concentration than the 30 ng ml^-1 of the Q104M mutant
B1: human FGF21, secreted bioactive form (H29 to S209 of SEQ ID NO: 100) (ligand)
chain: HPIPDSSPLLQFGGQVRQRYLYTDDAQQTEAHLEIREDGTVGGAADQSPESLLQLKALKPGVIQILGVKTSRFLCQRPDGALYGSLHFDPEACSFRELLLEDGYNVYQSEAHGLPLHLPGNKSPHRDPAPRGPARFLPLPGLPPALPEPPGILAPQPPDVGSSDPLSMVGPSQGRSPSYAS
notes: Used both immobilized on the SPR chip and in solution; also called wild-type FGF21; native FGF21
